Data published in patent US20210369837A1, “METHODS OF TREATING TIM-3 ELEVATION” (ADVANTAGENE, INC., priority 2016, published 2021).

System: PD-L1
Test: Flow cytometry of PD-L1 protein expression after interferon treatment
Assay type: cell-based, mouse
Conditions: CT2A and GL261 cells, day 4 post-treatment, IFN-β 1000 U/ml (FIGS. 5C-5F)
Procedure: In another experiment, CT2A and GL261 cells were treated with IFN-β (1000 U/ml) (PBL Assay Science, Piscataway N.J.) and/or MAR-1-5A3 monoclonal antibody against IFNAR1 (BioXcel, West Lebanon, N.H.) ([…]). Cells were analyzed by flow cytometry for PD-L1 protein expression at day 4 post-treatment using either in the absence of specific antibody (isotype) or with PD-L1 specific antibody (BD Bioscience, San Jose, Calif.). Cells analyzed were either subjected to no treatment (untreated), or treated with INFα or INFβ.
FIG. 5D and FIG. 5F show quantification of the percent of live cells analyzed by flow cytometry that express surface PD-L1 above baseline.

B1: IFN-β: IFN-β (1000 U/ml) (PBL Assay Science) used to treat CT2A and GL261 cells (protein, UniProt P01575 22-182, looked up)
Interferon beta: INYKQLQLQERTNIRKCQELLEQLNGKINLTYRADFKIPMEMTEKMQKSYTAFAIQEMLQNVFLVFRNNFSSTGWNETIVVRLLDELHQQTVFLKTVLEEKQEERLTWEMSSTALHLKSYYWRVQRYLKLMKYNSYAWMVVRAEIFRNFLIIRRLTRNFQN
  Surface expression of PD-L1 protein: increased surface expression of PD-L1 protein
Listed as INFβ
  Surface expression of PD-L1 protein: Increases in surface PD-L1 expression
